Data: the DeepSol protein solubility set

Test: soluble on expression in E. coli; label from the status in PepcDB or PDB records
In the case of “MAHHHHHHMEVEGTKERARGVTTFTRADLELREAAEDHRALLAEPWASHALRKGYSGREEHTKWITETWEAFERRKEDQKLYLERHDLCLQYKAAQLSETRRLSEQKSAALVEKMMALEAARKGALLQSRHFLFVDYYDYQQFLFRNQRSFVEDEEKLLRCKLSETEDDLMCLLVIQWHLSSHLHAAREKERVEEEAAAERLREFQYRQKLEEERLREEQRIAQEKEASQAEKEQAELEKRLERKRRDAERRAKVRAEREQRRAQE”, the “soluble on expression in E. coli” value is reported as “not soluble”. In the case of “MGSDKIHHHHHHMRTRYVDIDDRMEDLADRLRGDPEIVQDFLARYELSWLYHENALEGVVYSSQELATALANAPLADVTFVSALQEIRNHKVALDLVREEAAAKKPKLNLTTVKKLYETLGHGIEGRSVAEYRKDMPLHRAYFHDIAQPPKIQPALQKLLEATEGADFRNAHPIQQACKLHHGFMQVFPFTENSGRVARLLANLVLLHAGYKLPVIVHATDRQRYYESLRLPDTILRDLTMEALDNALTQAEKYFAEAPRARKAAR”, the “soluble on expression in E. coli” value is reported as “not soluble”. For “MRLILLALLALVFPAVAQEDMPAKVWLEKMSQALKEKEFKASIIQLQADHIRPLVYLHGKVNNQEVAFLEYLNGPPKNAVRVGNRVTFIEHDQPAYSILSNHIQGVWPAAFSSQMSDLEVGYQFVMGGRTRIAGRPGQMIRLLPNDEYRYGFQIWLDMDTYLPLRYDMLTQDKQLLEQLMVIELIEFSEPPSILQEAYKQEWPAVIDQAERQDGQNWQFSWLPAGFSVVVRDHHRLIGSHEAVEYIALTDGLANISIYVARAGSTPLPEELITRNGLSLVAEKVGNAEVVAVGKVPTETLARIAKSLMLK”, the “soluble on expression in E. coli” value was “not soluble”. In the case of “GTTVHCDYLNRPHKSIHRRRTDPMVTLSSILESIINDMRDLPNTYPFHTPVNAKVVKDYYKIITRPMDLQTLRENVRKRLYPSREEFREHLELIVKNSATYNGPKHSLTQISQSMLDLCDEKLKEKEDKLARLEKAINPLLDDDDQVAFSFILDNIVTQKMMAVPDSWPFHHPVNKKFVPDYYKVIVNPMDLETIRKNISKHKYQSRESFLDDVNLILANSVKYNGPESQYTKTAQEIVNVCYQTLTEYDEHLTQLEKDICTAKEAALEEAELESLDPMT”, the “soluble on expression in E. coli” value is reported as “soluble”. With “MRQRKDMPHNRLQTGGMTDEPTDIKAEAKPARTSDLRGFIRLLEERGQLRRIRQPVSLVHEITEIHRRVLADGGPALLFEQPVDHEGKVRKMPLLANLFGTRQRIEWGLGLETGGLPALGQKLTELREPRPPKSMAEAWSKLPLLRAALSMRQRNVSRAPVQEKVLTRDAVDLARLPVQWCWPGEPAPLITWPLVITRSPDDPDDINVGIYRMQVLGPDRVIMRWLAHRGGAHHHRLWQARGLDMPVTVAIGADPATILAAVMPLPDHISELGFSGLLRGAKSRIAKALTVPMPVPANAEIVLEGTVSATETAMEGPYGDHTGYYNSVEAFPVMTLSAITMRRDPIYLSTYTGRPPDEPSVLGEAMLEIFLPLVKRQFAEIVDLWMPPEACSYRVMVASIDKRYPGQAKRVMMGLWSMLPQFSYVKLIILVDPDIDVRSWTDVVWALSTRFDASRDTTIINDTPIDYLDFASPKAGLGGKMGLDATRKLPPETEREWGRVLSMTPDVVAKVDLVWRDLGLGERPVDKLAAALEHHHHHH” the “soluble on expression in E. coli” value was “not soluble”. In the case of “MDIARPSCYETVRNDDDKKSSDADIYNTSVKLEDPSAPSHDEQWTYNFFITPLNLNISPTDFKIPNDKSVKYTVKCEAKIKQDLIVQVHSLFFEIVGARCKRGVTSQEFHILSENETMTFEVGMKDLNNVSYENYQAANLLSPAGFITFTHFKSLRKDDASWGVKDPKKLMKVVTKGDGGRYNLEKLLVETETDSIKKISEDFAMILQQGMDDKRTKEQEMKMGNMEMFATEEYVEKWKKDKKAIEIAQKNQREWNDKKLEKPGMQKKKEKKCNIM”, the “soluble on expression in E. coli” value is reported as “not soluble”. In the case of “GQEPENQTLETILNRKSVRKYKDRPVEKEKIDKLIRAGMAAPSSRDRRPWEFIIVTDRKALDTMAEGLPFARMLKETRQAIVVCGDTIKSSNAWFLDCSAASQNLLLAAESMGLGAVWTAVYPYPDRIEIVRKELRLPDHIMPLNVIPVGYPMQKETPKNKYNVQQIHHNGW”, the “soluble on expression in E. coli” value is reported as “soluble”. For “MGKATWRQVWERARALAGAAALAVLAGCAAPGAQDPGQARNTAREAYIYAYPMLYHYRSMYEQAIDTASPAYLGGFGVFQHRAEPYTPQSVDVATPNVDTLYSRAWLDLRAEPWVLSLPAVPKSRYNAFQLVDMYTYNLAYLGTRATGFGSGHYLIAGPGWTGPVPKGITQVVRADTDFVAVLGRTALNGPADIKAVHALQARYGLRPLSAYTGTAAPAGAPPVDWLPWNEQRASSIGFIAYLNQLLAHTQPQPESEADMMARFARIGVAPGRDFEPARLDAATRRAMDAGIVDAQQAIEQGARHAAAPATPASLYGSREQLGGDYLKRAVAAAVGIYGNTADEAIYLTIGEDAQGRPLDGARAYELRFAPGRQPPVRFFWSISVYALPARGLAENPIDRYAIGSRTKGIKRGRDGSLTVYLQHDAPARAHAPNWLPTPAGPFVVVARFYGPQPALRDGAWVMPALVPARLEHHHHHH”, the “soluble on expression in E. coli” value was “not soluble”. In the case of “MSLRRSLLLVDDDADHLAVLRCTLESCGFDVSLAPDGAAALALAHARAFDAVVLDIAMPGLSGWEVAERLRAAHGQSFRLVMLSANAEERHGPRGKEPDHDLFLMKPVELSALVDSLGKLLGLEWILSEGGGDTVLAQPRIDVSDSARTHVDRLKSLARIGHLRGLEAEIRSMQETDTGTAPLAARLFDCLDRCDLVAMRRVLEGIEGHHHHHH”, the “soluble on expression in E. coli” value is reported as “not soluble”. With “MGHHHHHHSHSGGRNKIRKILDKTRFSILPPKLFSDGGLSQSQDDSIVGTRHCRHSLAIMPIPGTLSSSSPDLLQPTTSMLDFSNPSDIPDQVIRVFKVDQQSCYIIISKDTTAKEVVFHAVHEFGLTGASDTYSLCEVSVTPEGVIKQRRLPDQFSKLADRIQLNGRYYLKNNMETETLC” the “soluble on expression in E. coli” value was “not soluble”. With “MENKEISYEIIDFSGETNVQFRTSVDPGSYIPTHWHRAIEIIYMQEGSLDVIVESESFTIYKGDCILVNGNVLHSTKCTAPNTAILLQIPLNFMEKYIPNLGQLIFLWDYRTEDPVKKTKLMMLKTTLEQLQVINDIQPDGYLLRFNSLIFELMFQLYHNFSVQVFPQDINHKKKEMDRLDP” the “soluble on expression in E. coli” value was “not soluble”. In the case of “MCSLLKLLKISGKSVSDDDPIERYIKCEQCKCKRHWVEQLQRDEMDQMLHRLQFENKQLRKELEWKRGAASTMEIDRSSKRHQERHQSESRGGTLPLRNGRSVVSLKSTQSQNDVMDEAKALRLHKQRLEHRSRILEQQNEQLEMQLQRLKKVIDAQKQQAPLSTNSLLRGSHHQPWSPERARSGSASTLDRGLIVSSRHQEQAEAAGGGAEDSSDEAGGAGGGPRGSSVGQMQNLMTACDDLGKAMESLVVSVVYDSDDEEND”, the “soluble on expression in E. coli” value is reported as “not soluble”. With “MAHHHHHHMSTEEQQVTQGTAHAPAPTTVKNKANSYYYWHQHEKDRAKVGDVAPMPTPYLVSKDDARAMAAPAVPTVSVSKYSWCDGDKFVSVYIDTVVPEGGTLDESSIEATFTGNSFKVTFATADEAGRTRAKSLSIRLSKRIDKDRSSTKVKPKTQQILVRLAKKVESVWLDLEGEASDQDSAADSEAADAE” the “soluble on expression in E. coli” value was “soluble”. With “MPGTTDQIDVNVEVKEKPTGAVMFGAGYSNMEGLILSGSVAQDNIFGTGKFVNLMVNTGSVNKTYSLSYTDPYFTKDGVTAGLDLYKRVLNTRTLSSVMNFNTDTLGAGLRFGIPINENDSIMGGLGAEQTTIDLGPDSPQRNIDFVNKFGRTTINIPATLSWRRDGRDSAIWTTSGTTQRVFAEVGLPGGDLTYYKLSYDLRWYFPITEIFTLMLNGELGYGDGYSGKELPFFKNFFAGGNTSVRGYNISSLGPRDATNRTLGGNKRAVGNIEVLFPMPGMRNDRTVRLSAFLDGGTVWGPGGVRPDQEGLRYSAGIAVTWISPMGPLKISVAQPLNSQPGDNIQRFQFQFGQQFLEHHHHHH” the “soluble on expression in E. coli” value was “soluble”. For “IPIPSALEARLDAYVALLQQWQAKTNLVAPSTLPQLWTRHVADSLQLVSLMPHARRWLDFGSGGGFPGVVLACAMADVGGHVTLVERIAKKAAFLREALRVAGAPGTVILADIGDNVDRFPQALDCITARAVAPLHQLIGFAEPLMTPGTTKALFLKGQDVDAELTETTKYWKFQPKLHASVTGGQGWIVEIDHIER”, the “soluble on expression in E. coli” value was “not soluble”. With “RPFMQKRAQKALPHVSTGADALVGRKVLVTETIDPTTDKGRVAVDGDVWTARSLTGEVIEKGMRVEIVSYESIVLNVVVLGNDKQ” the “soluble on expression in E. coli” value was “not soluble”. With “MTVFANRLLGPKGWLLNARVTIDGLFIASVEPDSAPLPGDVRVDTLLPAPGNLHSHSFQRAMAGMTEYRSRGRESFWTWRELMYRFLDRLTPEHVAAIAAQTFVEMQKAGYAAVGEFHYLHHRPGGGHYDDRAEMSARIVQAAAETGIGLTLLPVLYTHGGADGRALAGGQLRFGNDLDAYCTLVEGARAHTRTLAADARVGIAPHSLRAVSATDLAEVAARHPDGPVHIHIAEQTREVEEIEAAYGARPVDWLLNNAAVGPRWCLIHATHMSDAETRAMASTGAVAGLCPITEANLGDGIFNGVPYLEAGGAFGVGSDSNVLISLTEELRLLEYSQRLRDRERNVLAGAEGSTGAALYLGALRGGARALDRRAGEIAPGALADLVAIDSNAPALCALEPEQLLDGLIFAAGERVVSDLWSAGRHQVRAGRHVAEESIARRYGAALRDLLARV” the “soluble on expression in E. coli” value was “not soluble”. With “MPKKAGATSKGKNQTKEPETAPPAAGPVATDPKGFVTIAIHAKPGSRQNAVTDLSTEAVGVAIAAPPSEGEANAELCRYLSKVLDLRKSDVVLDKGGKSREKVVKLLASTTPEEVLEKLKTEAEKK” the “soluble on expression in E. coli” value was “soluble”. With “MGSDKIHHHHHHMRNRREVSKLLSERVLLLDGAYGTEFMKYGYDDLPEELNIKAPDVVLKVHRSYIESGSDVILTNTFGATRMKLRKHGLEDKLDPIVRNAVRIARRAAGEKLVFGDIGPTGELPYPLGSTLFEEFYENFRETVEIMVEEGVDGIIFETFSDILELKAAVLAAREVSRDVFLIAHMTFDEKGRSLTGTDPANFAITFDELDIDALGINCSLGPEEILPIFQELSQYTDKFLVVEPNAGKPIVENGKTVYPLKPHDFAVHIDSYYELGVNIFGGCCGTTPEHVKLFRKVLGNRKPLQRKKKRIFAVSSPSKLVTFDHFVVIGERINPAGRKKLWAEMQKGNEEIVIKEAKTQVEKGAEVLDVNFGIESQIDVRYVEKIVQTLPYVSNVPLSLDIQNVDLTERALRAYPGRSLFNSAKVDEEELEMKINLLKKYGGTLIVLLMGKDVPKSFEERKEYFEKALKILERHDFSDRVIFDPGVLPLGAEGKPVEVLKTIEFISSKGFNTTVGLSNLSFGLPDRSYYNTAFLVLGISKGLSSAIMNPLDETLMKTLNATLVILEKKELPRAEVKEEKLVEIILSGNRSELEKLVEDFLKEKDPLSVIEEHLRPAMERIGELYDKGKIFLPQLILAAQTVKPVFDKLTSMLPSDSQGETFVIATVKGDVHDIGKNIVASVIRSSGYRVVDLGKDVDTSEIVEAVEKERPVALGLSAMMTTTVGRIKEVVEKLKEKNLKIPVIVGGASLNEKLAKELGADYYAKNASEAVKILKSLGR” the “soluble on expression in E. coli” value was “not soluble”. For “MFVLPVRFERSPRLHPMLSESPHPVGTRVVVQGKRGPEIATVRGEASEPERQARYGAVLRAATPEDLATWEDLHRRAEDLKWLLRARARERGLPVKLVAVEFTLDESLVTISYSADERIELSSLIGELRAHTRARVNFAAIGPREQAQMLGTLGACGRENCSSTHLQDFAPVSIRMARDQQLPLNPEKLSGPCGRLLCCLQYEHEQYLDLLRDLPRKNAKMCHEGSGACGKVTKLHPLAGTVDLQTDQGLLQDVPASELRRLPEQAAARSPRREPREAPASTDLEHHHHHH”, the “soluble on expression in E. coli” value was “soluble”.
